Article PMC4643400 (Human mutation, 2015)

Molecular target: T1, Trm7-A26P-PT (S. cerevisiae, UniProt P38238 1-310, A26P)
T1 sequence (looked up): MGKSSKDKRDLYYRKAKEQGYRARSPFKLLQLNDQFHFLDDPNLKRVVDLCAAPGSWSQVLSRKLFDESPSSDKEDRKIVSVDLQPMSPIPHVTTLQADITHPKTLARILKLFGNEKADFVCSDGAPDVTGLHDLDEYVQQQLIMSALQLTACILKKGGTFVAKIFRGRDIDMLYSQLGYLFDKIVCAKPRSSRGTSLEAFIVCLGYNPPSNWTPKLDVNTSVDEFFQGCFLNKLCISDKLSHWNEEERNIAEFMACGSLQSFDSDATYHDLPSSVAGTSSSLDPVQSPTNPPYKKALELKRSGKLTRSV
Assay: pull-down

fold of Trm734-9myc pulled down against Trm7-MORF from a CEN plasmid: ~10 fold
B1: Trm734-9myc (natural protein, S. cerevisiae, UniProt Q08924 1-1013, looked up)
chain: MKDLSHYGPALCVKFYNDYVLAGYGPFIHVYDYHSATLINKCRLFHYNKVHGLSLSSEGKILAYGARSVTIVELEDVLKKESLVDFERINSDWITGATFSFDNLQIYLLTCYNKVLICDLNCEVLFRKSLGGERSILYSGIIKVFGPDKVYVNAGTVMGGVIIWDLFSETKIHNLLGHEGSIFYVNLSNNGRYVASCSDDRSIRLWDLETGKQLSVGWSHTARIWNLMFFDNDSKLISVSEDCTCRVWNIIESRENVAELSISNVYEVHLIKSIWGVDVKDDEMIAVTSGNDGRLKLIDLLQLKRHGDEETSFSLDDIAKQCGDIFEKNESIKGFQWFSFGVIAITSLGKILKYSDVTKQWKLLLTNEKFNSYPITNGIQTQNIAVFSNNKSDILLIKFSKDSADIIETEEFHLDELSKTNNCLVTEYDDDSFLLTLQSPNPREKFVCLEISLQNLKIKSKHCFNKPENFSSSCLTSFRNHILVGSRFSTLVIYNLLDESEEPFIIRRLSPGDTTTSIEFVEDKDNSAVFSVTNRDGYYVFIELTKNSLEEGPYRLSYKVLHSNKMMKGFLEGAFFNSKGEYITYGFKSSLFYLYNETNCYELASEVCGGSHRLWNLAKITDGHVLMYIKASRFHLRKIYNSIVPETLENGVHGREIRDISICPVSNTNTNDNFKDGHIFCTASEDTTIKLGYFNNRTGKVQNFWTQRKHVSGLQRCQFINHKLMISSSAREELFLWELNDKYNKRPYMTIRQALPVSTNNSDLRIMDFDVKFISQSGDFLLVTVYSDSTIKIWHYRENQNKFDLIMQGRYKTCCLFNVVFIALKEELLVVISPTDGHLVVYNITEYVPFSVDPISGDLVDHKLDATISNLPAPVAQLPVHQSGVKSLDYVANATRTSATILTGGDDNGLGLSNLKLDDSNKVTLKTSDFIAAAASSTITSGMLINGGKEVITTSVDQVIRAWEITAGKLSLVDKKRTTVADTGSLEIISNDEDADSEKTLLIGGVGLSIWKK
